In IntAct's records for PubMed 33368531:

B1: Centriole and centriolar satellite protein OFD1 (Homo sapiens), O75665 (parent)
chain: MMAQSNMFTVADVLSQDELRKKLYQTFKDRGILDTLKTQLRNQLIHELMHPVLSGELQPRSISVEGSSLLIGASNSLVADHLQRCGYEYSLSVFFPESGLAKEKVFTMQDLLQLIKINPTSSLYKSLVSGSDKENQKGFLMHFLKELAEYHQAKESCNMETQTSSTFNRDSLAEKLQLIDDQFADAYPQRIKFESLEIKLNEYKREIEEQLRAEMCQKLKFFKDTEIAKIKMEAKKKYEKELTMFQNDFEKACQAKSEALVLREKSTLERIHKHQEIETKEIYAQRQLLLKDMDLLRGREAELKQRVEAFELNQKLQEEKHKSITEALRRQEQNIKSFEETYDRKLKNELLKYQLELKDDYIIRTNRLIEDERKNKEKAVHLQEELIAINSKKEELNQSVNRVKELELELESVKAQSLAITKQNHMLNEKVKEMSDYSLLKEEKLELLAQNKLLKQQLEESRNENLRLLNRLAQPAPELAVFQKELRKAEKAIVVEHEEFESCRQALHKQLQDEIEHSAQLKAQILGYKASVKSLTTQVADLKLQLKQTQTALENEVYCNPKQSVIDRSVNGLINGNVVPCNGEISGDFLNNPFKQENVLARMVASRITNYPTAWVEGSSPDSDLEFVANTKARVKELQQEAERLEKAFRSYHRRVIKNSAKSPLAAKSPPSLHLLEAFKNITSSSPERHIFGEDRVVSEQPQVGTLEERNDVVEALTGSAASRLRGGTSSRRLSSTPLPKAKRSLESEMYLEGLGRSHIASPSPCPDRMPLPSPTESRHSLSIPPVSSPPEQKVGLYRRQTELQDKSEFSDVDKLAFKDNEEFESSFESAGNMPRQLEMGGLSPAGDMSHVDAAAAAVPLSYQHPSVDQKQIEEQKEEEKIREQQVKERRQREERRQSNLQEVLERERRELEKLYQERKMIEESLKIKIKKELEMENELEMSNQEIKDKSAHSENPLEKYMKIIQQEQDQESADKSSKKMVQEGSLVDTLQSSDKVESLTGFSHEELDDSW

Variants of: B1
Conditions: with gbrap_human GABARAP

Row | effect of a mutation on the interaction | Variant
1 | disrupting interaction | Y961A;I964A

Variants of: B1
Conditions: with mlp3b_human MAP1LC3B

Row | effect of a mutation on the interaction | Variant
2 | disrupting interaction | Y961A;I964A

Variants of: B1
Conditions: with gbrap_human GABARAP
Remark: another data set of the same source

Row | effect of a mutation on the interaction | Variant
3 | disrupting interaction | Y961A;I964A
